Measurements reported in IntAct's records for PubMed 28514442.

B1: WASH complex subunit 5 (Homo sapiens), Q12768 (parent)
chain: MLDFLAENNLCGQAILRIVSCGNAIIAELLRLSEFIPAVFRLKDRADQQKYGDIIFDFSYFKGPELWESKLDAKPELQDLDEEFRENNIEIVTRFYLAFQSVHKYIVDLNRYLDDLNEGVYIQQTLETVLLNEDGKQLLCEALYLYGVMLLVIDQKIEGEVRERMLVSYYRYSAARSSADSNMDDICKLLRSTGYSSQPGAKRPSNYPESYFQRVPINESFISMVIGRLRSDDIYNQVSAYPLPEHRSTALANQAAMLYVILYFEPSILHTHQAKMREIVDKYFPDNWVISIYMGITVNLVDAWEPYKAAKTALNNTLDLSNVREQASRYATVSERVHAQVQQFLKEGYLREEMVLDNIPKLLNCLRDCNVAIRWLMLHTADSACDPNNKRLRQIKDQILTDSRYNPRILFQLLLDTAQFEFILKEMFKQMLSEKQTKWEHYKKEGSERMTELADVFSGVKPLTRVEKNENLQAWFREISKQILSLNYDDSTAAGRKTVQLIQALEEVQEFHQLESNLQVCQFLADTRKFLHQMIRTINIKEEVLITMQIVGDLSFAWQLIDSFTSIMQESIRVNPSMVTKLRATFLKLASALDLPLLRINQANSPDLLSVSQYYSGELVSYVRKVLQIIPESMFTSLLKIIKLQTHDIIEVPTRLDKDKLRDYAQLGPRYEVAKLTHAISIFTEGILMMKTTLVGIIKVDPKQLLEDGIRKELVKRVAFALHRGLIFNPRAKPSELMPKLKELGATMDGFHRSFEYIQDYVNIYGLKIWQEEVSRIINYNVEQECNNFLRTKIQDWQSMYQSTHIPIPKFTPVDESVTFIGRLCREILRITDPKMTCHIDQLNTWYDMKTHQEVTSSRLFSEIQTTLGTFGLNGLDRLLCFMIVKELQNFLSMFQKIILRDRTVQDTLKTLMNAVSPLKSIVANSNKIYFSAIAKTQKIWTAYLEAIMKVGQMQILRQQIANELNYSCRFDSKHLAAALENLNKALLADIEAHYQDPSLPYPKEDNTLLYEITAYLEAAGIHNPLNKIYITTKRLPYFPIVNFLFLIAQLPKLQYNKNLGMVCRKPTDPVDWPPLVLGLLTLLKQFHSRYTEQFLALIGQFICSTVEQCTSQKIPEIPADVVGALLFLEDYVRYTKLPRRVAEAHVPNFIFDEFRTVL

Variants of: B1
Details: with pcna_human PCNA

effect of a mutation on the interaction | Variant
with no effect | V626F
with no effect | N471D
with no effect | L619F
